Experiments:
[1] = target: T1, FcγRIa extracellular domain with C-terminal His tag (human, UniProt P12314 16-292); experiment: SPR (Biacore T100), ratio of KD values
T1 construct: extracellular domain; also called FcgRIa; FcgRI
Description: (§1) These antibodies were assessed for the binding activity to each FcγR according to the method described in Reference Example 2.
(§2) Analysis of interaction between objective antibody and the FcγR was carried out using Biacore T100 (GE Healthcare). HBS-EP+ (GE Healthcare) was used as the running buffer, and the measurement temperature was set to 25° C. Chips produced by immobilizing the antigen peptide by the amine coupling method to a Series S Sencor Chip CM5 (GE Healthcare), or alternatively, chips produced by allowing preliminarily biotinylated antigen peptides to interact with and immobilize onto a Series S Sensor Chip SA (certified) (GE Healthcare) were used. Antibodies of interest were captured onto an antigen peptide-immobilized chip, and allowed to interact to each FcγR diluted with running buffer. To regenerate and repeatedly use the chip, the antibodies captured on the chip were washed off by reacting 10 mM glycine-HCl, pH 1.5.
(§3) The FcγR-binding activity of each antibody was assessed primarily using as an indicator the FcγR-binding activity and dissociation constant for FcγR.

[2] = target: T2, FcγRIIa type H extracellular domain with C-terminal His tag (human, UniProt P12318 34-217); experiment: SPR (Biacore T100), ratio of KD values
T2 construct: extracellular domain; also called FcgRIIa H; FcγRIIa H
T2 sequence (looked up): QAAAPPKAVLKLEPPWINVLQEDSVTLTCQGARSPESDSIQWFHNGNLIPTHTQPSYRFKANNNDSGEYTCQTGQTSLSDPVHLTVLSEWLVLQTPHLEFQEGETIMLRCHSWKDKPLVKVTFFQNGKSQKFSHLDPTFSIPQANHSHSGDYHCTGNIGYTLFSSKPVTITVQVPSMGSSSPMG
Description: as §1, §2, §3

[3] = target: T3, FcγRIIa type R extracellular domain with C-terminal His tag (human, UniProt P12318 34-217); experiment: SPR (Biacore T100), ratio of KD values
T3 construct: extracellular domain; also called FcgRIIa R; FcγRIIa R
T3 sequence (looked up): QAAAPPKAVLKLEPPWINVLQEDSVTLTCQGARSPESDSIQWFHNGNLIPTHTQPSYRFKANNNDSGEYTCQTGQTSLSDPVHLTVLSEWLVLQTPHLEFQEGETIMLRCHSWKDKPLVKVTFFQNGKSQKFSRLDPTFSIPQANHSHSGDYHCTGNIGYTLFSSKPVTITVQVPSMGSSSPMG
Description: as §1, §2, §3

[4] = target: T4, FcγRIIb extracellular domain with C-terminal His tag (human, UniProt P31994 43-217); experiment: SPR (Biacore T100), ratio of KD values
T4 construct: extracellular domain; also called FcgRIIb
T4 sequence (looked up): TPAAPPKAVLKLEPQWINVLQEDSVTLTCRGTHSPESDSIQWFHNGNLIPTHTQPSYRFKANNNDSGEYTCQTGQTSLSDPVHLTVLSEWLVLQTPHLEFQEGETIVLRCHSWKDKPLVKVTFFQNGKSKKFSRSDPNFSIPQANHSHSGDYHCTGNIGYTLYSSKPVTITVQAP
Description: as §1, §2, §3

[5] = target: T5, FcγRIIIa type F extracellular domain with C-terminal His tag (human, UniProt P08637 17-208); experiment: SPR (Biacore T100), ratio of KD values
T5 construct: extracellular domain; also called FcgRIIIa F; FcγRIIIa F
Description: as §1, §2, §3

[6] = target: T6, FcγRIIIa type V extracellular domain with C-terminal His tag (human, UniProt P08637 17-208); experiment: SPR (Biacore T100), ratio of KD values
T6 construct: extracellular domain; also called FcgRIIIa V; FcγRIIIa V
Description: as §1, §2, §3

[7] = target: T1, FcγRIa extracellular domain with …; experiment: SPR (Biacore T100), antibody captured on antigen-peptide chip, FcγR analyte, 1:1 Langmuir fit
Description: as §1, §2, §3

[8] = target: T2, FcγRIIa type H extracellular domain …; experiment: as above
Description: as §1, §2, §3

[9] = target: T3, FcγRIIa type R extracellular domain …; experiment: as above
Description: as §1, §2, §3

[10] = target: T4, FcγRIIb extracellular domain with …; experiment: as above
Description: as §1, §2, §3

[11] = target: T5, FcγRIIIa type F extracellular domain …; experiment: as above
Description: as §1, §2, §3

[12] = target: T6, FcγRIIIa type V extracellular domain …; experiment: as above
Description: as §1, §2, §3

T6 sequence (P08637 17-208 F176V): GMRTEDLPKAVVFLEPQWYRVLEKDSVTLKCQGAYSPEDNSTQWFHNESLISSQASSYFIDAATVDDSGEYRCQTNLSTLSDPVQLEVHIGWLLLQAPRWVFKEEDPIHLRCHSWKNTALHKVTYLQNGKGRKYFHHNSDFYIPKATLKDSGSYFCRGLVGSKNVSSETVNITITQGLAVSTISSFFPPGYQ
T1 sequence (P12314 16-292): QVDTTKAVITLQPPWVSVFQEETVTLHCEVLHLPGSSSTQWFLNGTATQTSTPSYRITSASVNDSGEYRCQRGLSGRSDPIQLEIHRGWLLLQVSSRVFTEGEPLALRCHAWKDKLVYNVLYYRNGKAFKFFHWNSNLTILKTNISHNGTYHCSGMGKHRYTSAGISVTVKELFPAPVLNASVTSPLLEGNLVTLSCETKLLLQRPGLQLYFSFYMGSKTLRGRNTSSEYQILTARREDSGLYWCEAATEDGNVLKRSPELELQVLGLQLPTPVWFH
T5 sequence (P08637 17-208): as the sequence (P08637 17-208 F176V) above, with V160F counted along it

Row | Binder | KD ratio [1] | KD ratio [2] | KD ratio [3] | KD ratio [4] | KD ratio [5] | KD ratio [6] | Kd [7] [nM] | Kd [8] [nM] | Kd [9] [nM] | Kd [10] [nM] | Kd [11] [nM] | Kd [12] [nM]
1 | GpH7-Kn045/GpH7-Hl048/GpL16-k0 (antibody, human IgG1, kappa, Heterodimerized anti-glypican-3 IgG1; also called Kn045/Hl048) heavy 1: QVQLVQSGAEVKKPGASVTVSCKASGYTFTDYEMHWIRQPPGEGLEWIGAIDPKTGDTAYSESFQDRVTLTADKSTSTAYMELSSLTSEDTAVYYCTRFYSYTYWGQGTLVTVSSASTKGPSVFPLAPSSKSTSGGTAALGCLVKDYFPEPVTVSWNSGALTSGVHTFPAVLQSSGLYSLSSVVTVPSSSLGTQTYICNVNHKPSNTKVDKKVEPKSCDKTHTCPPCPAPEYYAGPSVFLFPPKPKDTLMISRTPEVTCVVVDVSDEDPEVKFNWYVDGVEVHNAKTKPREEQYNATYRVVSVLTVLHQDWLNGKEYKCKVSNKALPAPIEKTISKAKGQPREPQVCTLPPSRDELTKNQVSLWCLVKGFYPSDIAVEWESNGQPENNYKTTPPVLDSDGSFFLYSKLTVDKSRWQQGNVFSCSVMHEALHNHYTQKSLSLSP heavy 2: QVQLVQSGAEVKKPGASVTVSCKASGYTFTDYEMHWIRQPPGEGLEWIGAIDPKTGDTAYSESFQDRVTLTADKSTSTAYMELSSLTSEDTAVYYCTRFYSYTYWGQGTLVTVSSASTKGPSVFPLAPSSKSTSGGTAALGCLVKDYFPEPVTVSWNSGALTSGVHTFPAVLQSSGLYSLSSVVTVPSSSLGTQTYICNVNHKPSNTKVDKKVEPKSCDKTHTCPPCPAPELLAGPDVFLFPPKPKDTLMISRTPEVTCVVVDVSHEDPEVKFNWYVDGVEVHNAKTKPREEQYNSTYRVVSVLTVLHQDWLNGKEYKCKVSNKALPKPEEKTISKAKGQPREPQVYTLPPSRCELTKNQVSLSCAVKGFYPSDIAVEWESNGQPENNYKTTPPVLDSDGSFFLVSKLTVDKSRWQQGNVFSCSVMHEALHNHYTQKSLSLSP light: DIVMTQSPLSLPVTPGEPASISCQASESLVHSNRNTYLHWYLQKPGQSPQLLIYKVSNRFSGVPDRFSGSGSGTDFTLKISRVEAEDVGVYYCSQNTHVPPTFGQGTKVEIERTVAAPSVFIFPPSDEQLKSGTASVVCLLNNFYPREAKVQWKVDNALQSGNSQESVTEQDSKDSTYSLSSTLTLSKADYEKHKVYACEVTHQGLSSPVTKSFNRGEC | 3.7 fold (KD of GpH7-Kn033/GpH7-Hl033/GpL16-k0 divided by KD of this antibody) | 52 fold (KD of GpH7-Kn033/GpH7-Hl033/GpL16-k0 divided by KD of this antibody) | 154 fold (KD of GpH7-Kn033/GpH7-Hl033/GpL16-k0 divided by KD of this antibody) | 34 fold (KD of GpH7-Kn033/GpH7-Hl033/GpL16-k0 divided by KD of this antibody) | 419 fold (KD of GpH7-Kn033/GpH7-Hl033/GpL16-k0 divided by KD of this antibody) | 170 fold (KD of GpH7-Kn033/GpH7-Hl033/GpL16-k0 divided by KD of this antibody) | 0.019 | 11 | 4.8 | 110 | 3.7 | 1.3
2 | GpH7-Kn045/GpH7-Hl055/GpL16-k0 (antibody, human IgG1, kappa, Heterodimerized anti-glypican-3 IgG1; also called Kn045/Hl055) heavy 1: QVQLVQSGAEVKKPGASVTVSCKASGYTFTDYEMHWIRQPPGEGLEWIGAIDPKTGDTAYSESFQDRVTLTADKSTSTAYMELSSLTSEDTAVYYCTRFYSYTYWGQGTLVTVSSASTKGPSVFPLAPSSKSTSGGTAALGCLVKDYFPEPVTVSWNSGALTSGVHTFPAVLQSSGLYSLSSVVTVPSSSLGTQTYICNVNHKPSNTKVDKKVEPKSCDKTHTCPPCPAPEYYAGPSVFLFPPKPKDTLMISRTPEVTCVVVDVSDEDPEVKFNWYVDGVEVHNAKTKPREEQYNATYRVVSVLTVLHQDWLNGKEYKCKVSNKALPAPIEKTISKAKGQPREPQVCTLPPSRDELTKNQVSLWCLVKGFYPSDIAVEWESNGQPENNYKTTPPVLDSDGSFFLYSKLTVDKSRWQQGNVFSCSVMHEALHNHYTQKSLSLSP heavy 2: QVQLVQSGAEVKKPGASVTVSCKASGYTFTDYEMHWIRQPPGEGLEWIGAIDPKTGDTAYSESFQDRVTLTADKSTSTAYMELSSLTSEDTAVYYCTRFYSYTYWGQGTLVTVSSASTKGPSVFPLAPSSKSTSGGTAALGCLVKDYFPEPVTVSWNSGALTSGVHTFPAVLQSSGLYSLSSVVTVPSSSLGTQTYICNVNHKPSNTKVDKKVEPKSCDKTHTCPPCPAPELLAGPDVFLFPPKPKDTLMISRTPEVTCVVVDVSHEDPEVKFNWYVDGVEVHNAKTKPREELYNSTYRVVSVLTVLHQDWLNGKEYKCKVSNKALPMPEEKTISKAKGQPREPQVYTLPPSRCELTKNQVSLSCAVKGFYPSDIAVEWESNGQPENNYKTTPPVLDSDGSFFLVSKLTVDKSRWQQGNVFSCSVMHEALHNHYTQKSLSLSP light: DIVMTQSPLSLPVTPGEPASISCQASESLVHSNRNTYLHWYLQKPGQSPQLLIYKVSNRFSGVPDRFSGSGSGTDFTLKISRVEAEDVGVYYCSQNTHVPPTFGQGTKVEIERTVAAPSVFIFPPSDEQLKSGTASVVCLLNNFYPREAKVQWKVDNALQSGNSQESVTEQDSKDSTYSLSSTLTLSKADYEKHKVYACEVTHQGLSSPVTKSFNRGEC | 3.7 fold (KD of GpH7-Kn033/GpH7-Hl033/GpL16-k0 divided by KD of this antibody) | 21 fold (KD of GpH7-Kn033/GpH7-Hl033/GpL16-k0 divided by KD of this antibody) | 56 fold (KD of GpH7-Kn033/GpH7-Hl033/GpL16-k0 divided by KD of this antibody) | 15 fold (KD of GpH7-Kn033/GpH7-Hl033/GpL16-k0 divided by KD of this antibody) | 985 fold (KD of GpH7-Kn033/GpH7-Hl033/GpL16-k0 divided by KD of this antibody) | 300 fold (KD of GpH7-Kn033/GpH7-Hl033/GpL16-k0 divided by KD of this antibody) | 0.019 | 29 | 13 | 240 | 1.6 | 0.72
3 | GpH7-Kn056/GpH7-Hl055/GpL16-k0 (antibody, human IgG1, kappa, Heterodimerized anti-glypican-3 IgG1; also called Kn056/Hl055) heavy 1: QVQLVQSGAEVKKPGASVTVSCKASGYTFTDYEMHWIRQPPGEGLEWIGAIDPKTGDTAYSESFQDRVTLTADKSTSTAYMELSSLTSEDTAVYYCTRFYSYTYWGQGTLVTVSSASTKGPSVFPLAPSSKSTSGGTAALGCLVKDYFPEPVTVSWNSGALTSGVHTFPAVLQSSGLYSLSSVVTVPSSSLGTQTYICNVNHKPSNTKVDKKVEPKSCDKTHTCPPCPAPEYYAGPSVFLFPPKPKDTLMISRTPEVTCVVVDVSDEDPEVKFNWYVDGVEVHNAKTKPREELYNATYRVVSVLTVLHQDWLNGKEYKCKVSNKALPAPIEKTISKAKGQPREPQVCTLPPSRDELTKNQVSLWCLVKGFYPSDIAVEWESNGQPENNYKTTPPVLDSDGSFFLYSKLTVDKSRWQQGNVFSCSVMHEALHNHYTQKSLSLSP heavy 2: QVQLVQSGAEVKKPGASVTVSCKASGYTFTDYEMHWIRQPPGEGLEWIGAIDPKTGDTAYSESFQDRVTLTADKSTSTAYMELSSLTSEDTAVYYCTRFYSYTYWGQGTLVTVSSASTKGPSVFPLAPSSKSTSGGTAALGCLVKDYFPEPVTVSWNSGALTSGVHTFPAVLQSSGLYSLSSVVTVPSSSLGTQTYICNVNHKPSNTKVDKKVEPKSCDKTHTCPPCPAPELLAGPDVFLFPPKPKDTLMISRTPEVTCVVVDVSHEDPEVKFNWYVDGVEVHNAKTKPREELYNSTYRVVSVLTVLHQDWLNGKEYKCKVSNKALPMPEEKTISKAKGQPREPQVYTLPPSRCELTKNQVSLSCAVKGFYPSDIAVEWESNGQPENNYKTTPPVLDSDGSFFLVSKLTVDKSRWQQGNVFSCSVMHEALHNHYTQKSLSLSP light: DIVMTQSPLSLPVTPGEPASISCQASESLVHSNRNTYLHWYLQKPGQSPQLLIYKVSNRFSGVPDRFSGSGSGTDFTLKISRVEAEDVGVYYCSQNTHVPPTFGQGTKVEIERTVAAPSVFIFPPSDEQLKSGTASVVCLLNNFYPREAKVQWKVDNALQSGNSQESVTEQDSKDSTYSLSSTLTLSKADYEKHKVYACEVTHQGLSSPVTKSFNRGEC | 2.9 fold (KD of GpH7-Kn033/GpH7-Hl033/GpL16-k0 divided by KD of this antibody) | 20 fold (KD of GpH7-Kn033/GpH7-Hl033/GpL16-k0 divided by KD of this antibody) | 44 fold (KD of GpH7-Kn033/GpH7-Hl033/GpL16-k0 divided by KD of this antibody) | 14 fold (KD of GpH7-Kn033/GpH7-Hl033/GpL16-k0 divided by KD of this antibody) | 1110 fold (KD of GpH7-Kn033/GpH7-Hl033/GpL16-k0 divided by KD of this antibody) | 327 fold (KD of GpH7-Kn033/GpH7-Hl033/GpL16-k0 divided by KD of this antibody) | 0.023 | 30 | 17 | 260 | 1.4 | 0.66

From patent US20180155451A1 (published 2018)
